The values below come from patent publication US20030004314A1 (published 2003).

Experiment in all cases: cell-based or functional assay
Experiment [1] addresses T1, T cell IL-4 receptor (IL-4Rα/IL-2Rγ) (human, UniProt P24394 26-825; P31785 23-369).
T1 sequence (looked up) 1: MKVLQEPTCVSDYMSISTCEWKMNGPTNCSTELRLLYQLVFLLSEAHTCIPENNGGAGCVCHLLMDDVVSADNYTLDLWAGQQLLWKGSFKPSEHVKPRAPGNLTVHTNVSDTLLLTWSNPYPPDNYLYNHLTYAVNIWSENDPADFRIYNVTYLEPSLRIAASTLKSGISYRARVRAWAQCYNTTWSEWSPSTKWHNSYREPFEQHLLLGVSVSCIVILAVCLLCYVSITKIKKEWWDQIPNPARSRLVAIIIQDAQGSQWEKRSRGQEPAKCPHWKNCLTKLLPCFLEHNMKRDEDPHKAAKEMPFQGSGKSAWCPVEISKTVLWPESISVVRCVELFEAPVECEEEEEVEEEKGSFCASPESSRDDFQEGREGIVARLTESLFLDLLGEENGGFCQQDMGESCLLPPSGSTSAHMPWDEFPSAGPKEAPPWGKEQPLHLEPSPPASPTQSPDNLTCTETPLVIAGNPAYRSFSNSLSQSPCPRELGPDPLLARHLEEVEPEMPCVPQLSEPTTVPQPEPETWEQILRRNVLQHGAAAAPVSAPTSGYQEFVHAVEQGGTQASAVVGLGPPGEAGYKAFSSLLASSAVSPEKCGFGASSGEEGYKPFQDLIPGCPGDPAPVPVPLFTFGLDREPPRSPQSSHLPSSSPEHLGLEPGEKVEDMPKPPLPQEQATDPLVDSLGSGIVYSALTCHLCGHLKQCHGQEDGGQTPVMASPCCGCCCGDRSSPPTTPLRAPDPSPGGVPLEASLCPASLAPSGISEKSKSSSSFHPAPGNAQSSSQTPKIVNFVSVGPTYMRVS
T1 sequence (looked up) 2: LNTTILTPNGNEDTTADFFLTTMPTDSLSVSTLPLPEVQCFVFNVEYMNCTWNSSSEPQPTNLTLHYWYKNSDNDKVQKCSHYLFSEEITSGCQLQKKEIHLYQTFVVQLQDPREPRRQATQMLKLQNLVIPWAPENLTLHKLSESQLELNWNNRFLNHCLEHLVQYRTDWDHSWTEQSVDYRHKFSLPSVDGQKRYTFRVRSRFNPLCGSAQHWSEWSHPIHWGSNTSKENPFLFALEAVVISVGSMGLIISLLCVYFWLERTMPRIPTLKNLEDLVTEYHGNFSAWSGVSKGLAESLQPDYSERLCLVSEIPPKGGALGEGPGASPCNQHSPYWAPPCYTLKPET

Experiment [2] deals with T2, HUVEC IL-4 receptor (IL-4Rα/γ-like receptor component) (human, UniProt P24394 26-825).
Experiment [3] concerns the target T2, HUVEC IL-4 receptor (IL-4Rα/γ-like …). The source holds these as a separate data set.

B1: IL-4 mutein R121E (ligand)
chain: HKCDITLQEIIKTLNSLTEQKTLCTELTVTDIFAASKNTTEKETFCRAATVLRQFYSHHEKDTRCLGATAQQFHRHKQLIRFLKRLDRNLWGLAGLNSCPVKEANQSTLENFLERLKTIMEEKYSKCSS
Take B1: the “1° T cell proliferation, EC50, pM” value in experiment [1] came to 65 pM. Besides, the “IC50, HUVEC antagonist assay (IL-4-induced IL-6 secretion)” value in experiment [2] was around 60 nM.

B2: IL-4 mutein T13D/R121E (ligand)
chain: HKCDITLQEIIKDLNSLTEQKTLCTELTVTDIFAASKNTTEKETFCRAATVLRQFYSHHEKDTRCLGATAQQFHRHKQLIRFLKRLDRNLWGLAGLNSCPVKEANQSTLENFLERLKTIMEEKYSKCSS
B2: the “1° T cell proliferation, EC50, pM” value in experiment [1] came out at 100 pM. In experiment [2], the “IC50, HUVEC antagonist assay (IL-4-induced IL-6 secretion)” value was around 2.2 nM and the “antagonist potency relative to R121E, HUVEC antagonist assay” value is around 27 fold.

B3: IL-4 mutein R121W (ligand)
chain: HKCDITLQEIIKTLNSLTEQKTLCTELTVTDIFAASKNTTEKETFCRAATVLRQFYSHHEKDTRCLGATAQQFHRHKQLIRFLKRLDRNLWGLAGLNSCPVKEANQSTLENFLERLKTIMWEKYSKCSS
On to B3, for which the “HUVEC, IL-6 secretion, EC50, pM” value in experiment [3] turned out to be 80 pM. Also, the “1° T cell proliferation, EC50, pM” value in experiment [1] was determined as 150 pM.

B4: IL-4 mutein R121P (ligand)
chain: HKCDITLQEIIKTLNSLTEQKTLCTELTVTDIFAASKNTTEKETFCRAATVLRQFYSHHEKDTRCLGATAQQFHRHKQLIRFLKRLDRNLWGLAGLNSCPVKEANQSTLENFLERLKTIMPEKYSKCSS
For the molecule B4, the “HUVEC, IL-6 secretion, EC50, pM” value in experiment [3] stood at 650 pM. The “1° T cell proliferation, EC50, pM” value in experiment [1] is 100 pM.

B5: IL-4 mutein Y124S (ligand)
chain: HKCDITLQEIIKTLNSLTEQKTLCTELTVTDIFAASKNTTEKETFCRAATVLRQFYSHHEKDTRCLGATAQQFHRHKQLIRFLKRLDRNLWGLAGLNSCPVKEANQSTLENFLERLKTIMREKSSKCSS
With B5, the “HUVEC, IL-6 secretion, EC50, pM” value in experiment [3] worked out at 350 pM. In experiment [1], the “1° T cell proliferation, EC50, pM” value was found to be 425 pM.

B6: IL-4 mutein Y124T (ligand)
chain: HKCDITLQEIIKTLNSLTEQKTLCTELTVTDIFAASKNTTEKETFCRAATVLRQFYSHHEKDTRCLGATAQQFHRHKQLIRFLKRLDRNLWGLAGLNSCPVKEANQSTLENFLERLKTIMREKTSKCSS
Turning to B6, in experiment [3], the “HUVEC, IL-6 secretion, EC50, pM” value was 350 pM. Moreover, the “1° T cell proliferation, EC50, pM” value in experiment [1] was 300 pM.

B7: IL-4 mutein R121T (ligand)
chain: HKCDITLQEIIKTLNSLTEQKTLCTELTVTDIFAASKNTTEKETFCRAATVLRQFYSHHEKDTRCLGATAQQFHRHKQLIRFLKRLDRNLWGLAGLNSCPVKEANQSTLENFLERLKTIMTEKYSKCSS
As to B7, the “HUVEC, IL-6 secretion, EC50, pM” value in experiment [3] turned out to be 20 pM. Moreover, the “1° T cell proliferation, EC50, pM” value in experiment [1] turned out to be 150 pM.

B8: IL-4 mutein R121N (ligand)
chain: HKCDITLQEIIKTLNSLTEQKTLCTELTVTDIFAASKNTTEKETFCRAATVLRQFYSHHEKDTRCLGATAQQFHRHKQLIRFLKRLDRNLWGLAGLNSCPVKEANQSTLENFLERLKTIMNEKYSKCSS
On to B8, for which the “HUVEC, IL-6 secretion, EC50, pM” value in experiment [3] is 35 pM. For the same molecule, the “1° T cell proliferation, EC50, pM” value in experiment [1] amounted to 150 pM.

B9: IL-4 mutein Y124A (ligand)
chain: HKCDITLQEIIKTLNSLTEQKTLCTELTVTDIFAASKNTTEKETFCRAATVLRQFYSHHEKDTRCLGATAQQFHRHKQLIRFLKRLDRNLWGLAGLNSCPVKEANQSTLENFLERLKTIMREKASKCSS
B9: the “HUVEC, IL-6 secretion, EC50, pM” value in experiment [3] worked out at 65 pM. Besides, the “1° T cell proliferation, EC50, pM” value in experiment [1] stood at 150 pM.

B10: IL-4 mutein R121K (ligand)
chain: HKCDITLQEIIKTLNSLTEQKTLCTELTVTDIFAASKNTTEKETFCRAATVLRQFYSHHEKDTRCLGATAQQFHRHKQLIRFLKRLDRNLWGLAGLNSCPVKEANQSTLENFLERLKTIMKEKYSKCSS
Take B10: in experiment [3], the “HUVEC, IL-6 secretion, EC50, pM” value was determined as 100 pM. Moreover, the “1° T cell proliferation, EC50, pM” value in experiment [1] turned out to be 150 pM.

B11: IL-4 mutein R121F (ligand)
chain: HKCDITLQEIIKTLNSLTEQKTLCTELTVTDIFAASKNTTEKETFCRAATVLRQFYSHHEKDTRCLGATAQQFHRHKQLIRFLKRLDRNLWGLAGLNSCPVKEANQSTLENFLERLKTIMFEKYSKCSS
For the molecule B11, in experiment [3], the “HUVEC, IL-6 secretion, EC50, pM” value amounted to 20 pM. Moreover, in experiment [1], the “1° T cell proliferation, EC50, pM” value stood at 150 pM.

B12: IL-4 mutein R121H (ligand)
chain: HKCDITLQEIIKTLNSLTEQKTLCTELTVTDIFAASKNTTEKETFCRAATVLRQFYSHHEKDTRCLGATAQQFHRHKQLIRFLKRLDRNLWGLAGLNSCPVKEANQSTLENFLERLKTIMHEKYSKCSS
As to B12, the “HUVEC, IL-6 secretion, EC50, pM” value in experiment [3] was 40 pM. Further, the “1° T cell proliferation, EC50, pM” value in experiment [1] worked out at 150 pM.

B13: IL-4 mutein R121I (ligand)
chain: HKCDITLQEIIKTLNSLTEQKTLCTELTVTDIFAASKNTTEKETFCRAATVLRQFYSHHEKDTRCLGATAQQFHRHKQLIRFLKRLDRNLWGLAGLNSCPVKEANQSTLENFLERLKTIMIEKYSKCSS
Turning to B13, in experiment [3], the “HUVEC, IL-6 secretion, EC50, pM” value is 40 pM. Further, in experiment [1], the “1° T cell proliferation, EC50, pM” value was 100 pM.

B14: IL-4 mutein R121A (ligand)
chain: HKCDITLQEIIKTLNSLTEQKTLCTELTVTDIFAASKNTTEKETFCRAATVLRQFYSHHEKDTRCLGATAQQFHRHKQLIRFLKRLDRNLWGLAGLNSCPVKEANQSTLENFLERLKTIMAEKYSKCSS
As for B14, in experiment [3], the “HUVEC, IL-6 secretion, EC50, pM” value turned out to be 20 pM. The “1° T cell proliferation, EC50, pM” value in experiment [1] stood at 150 pM.

B15: IL-4 mutein Y124R (ligand)
chain: HKCDITLQEIIKTLNSLTEQKTLCTELTVTDIFAASKNTTEKETFCRAATVLRQFYSHHEKDTRCLGATAQQFHRHKQLIRFLKRLDRNLWGLAGLNSCPVKEANQSTLENFLERLKTIMREKRSKCSS
Take B15: the “HUVEC, IL-6 secretion, EC50, pM” value in experiment [3] came out at 250 pM. For the same molecule, the “1° T cell proliferation, EC50, pM” value in experiment [1] is 750 pM.

B16: IL-4 mutein R121T/E122F/Y124Q (ligand)
chain: HKCDITLQEIIKTLNSLTEQKTLCTELTVTDIFAASKNTTEKETFCRAATVLRQFYSHHEKDTRCLGATAQQFHRHKQLIRFLKRLDRNLWGLAGLNSCPVKEANQSTLENFLERLKTIMTFKQSKCSS
Turning to B16, the “1° T cell proliferation, EC50, pM” value in experiment [1] came out at 15 pM.

B17: IL-4 mutein R121D (ligand)
chain: HKCDITLQEIIKTLNSLTEQKTLCTELTVTDIFAASKNTTEKETFCRAATVLRQFYSHHEKDTRCLGATAQQFHRHKQLIRFLKRLDRNLWGLAGLNSCPVKEANQSTLENFLERLKTIMDEKYSKCSS
With B17, the “1° T cell proliferation, EC50, pM” value in experiment [1] came to 100 pM.

B18: IL-4 mutein Y124A/S125A (ligand)
chain: HKCDITLQEIIKTLNSLTEQKTLCTELTVTDIFAASKNTTEKETFCRAATVLRQFYSHHEKDTRCLGATAQQFHRHKQLIRFLKRLDRNLWGLAGLNSCPVKEANQSTLENFLERLKTIMREKAAKCSS
Regarding B18, in experiment [3], the “HUVEC, IL-6 secretion, EC50, pM” value came to 200 pM. Further, the “1° T cell proliferation, EC50, pM” value in experiment [1] is 600 pM.

B19: IL-4 mutein Y124Q (ligand)
chain: HKCDITLQEIIKTLNSLTEQKTLCTELTVTDIFAASKNTTEKETFCRAATVLRQFYSHHEKDTRCLGATAQQFHRHKQLIRFLKRLDRNLWGLAGLNSCPVKEANQSTLENFLERLKTIMREKQSKCSS
On to B19, for which the “HUVEC, IL-6 secretion, EC50, pM” value in experiment [3] was 200 pM. Besides, the “1° T cell proliferation, EC50, pM” value in experiment [1] is 250 pM.
